Results from patent US20230104113.

Tested on: NF-kB (human)
Test: cell_activity
Settings: lipid transfection of 1 pmol

## AAAAAAAAAAGAUCUUGAAACUGUUUUAAGGUUGGCCGAUCUUAAAAAA [NF-kB aptamer linear RNA]
5' monophosphate, A549 MTT day 2 (101% day 1), with doxorubicin 78% day 2
  activity: 97 % viability

## AAAAAAAAAAGAUCUUGAAACUGUUUUAAGGUUGGCCGAUCUUAAAAAA [NF-kB aptamer circular RNA]
A549 MTT day 2 (89% day 1), with doxorubicin 79% day 1, 73% day 2
  activity: 86 % viability
